{"source": "paper PMC5074588", "about": "“TCS1, a Microtubule-Binding Protein, Interacts with KCBP/ZWICHEL to Regulate Trichome Cell Shape in Arabidopsis thaliana” (PLoS Genetics, 2016)", "target": "tubulins (tubulin dimers; paclitaxel-stabilized microtubules)", "sequence (chain, as listed by the source, chain 1 of 2)": "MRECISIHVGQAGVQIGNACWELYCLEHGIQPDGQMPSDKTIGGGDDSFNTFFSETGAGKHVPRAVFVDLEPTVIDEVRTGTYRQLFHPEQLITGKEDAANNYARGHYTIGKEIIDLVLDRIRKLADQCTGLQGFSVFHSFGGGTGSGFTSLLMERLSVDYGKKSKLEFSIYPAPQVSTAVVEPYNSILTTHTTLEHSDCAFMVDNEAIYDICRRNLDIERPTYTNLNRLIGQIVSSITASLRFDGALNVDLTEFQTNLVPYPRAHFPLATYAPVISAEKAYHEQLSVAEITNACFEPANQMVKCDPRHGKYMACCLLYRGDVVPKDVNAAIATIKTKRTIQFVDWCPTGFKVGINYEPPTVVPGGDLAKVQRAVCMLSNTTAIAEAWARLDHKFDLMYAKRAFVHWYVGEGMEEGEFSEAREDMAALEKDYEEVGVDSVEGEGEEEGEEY", "sequence (chain, as listed by the source, chain 2 of 2)": "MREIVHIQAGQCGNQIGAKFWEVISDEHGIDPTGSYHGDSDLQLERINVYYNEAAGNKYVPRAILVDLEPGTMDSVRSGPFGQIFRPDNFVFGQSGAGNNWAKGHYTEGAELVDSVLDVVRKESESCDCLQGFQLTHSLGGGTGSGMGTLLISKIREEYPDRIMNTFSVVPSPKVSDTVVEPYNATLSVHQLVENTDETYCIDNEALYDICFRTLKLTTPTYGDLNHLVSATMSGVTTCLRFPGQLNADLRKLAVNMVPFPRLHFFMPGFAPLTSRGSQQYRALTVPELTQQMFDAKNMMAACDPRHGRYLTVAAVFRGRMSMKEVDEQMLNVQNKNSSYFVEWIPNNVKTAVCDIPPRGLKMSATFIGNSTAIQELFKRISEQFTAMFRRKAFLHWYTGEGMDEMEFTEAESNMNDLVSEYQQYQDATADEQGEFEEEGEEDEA", "assay": "co-sedimentation; different concentrations of the protein added to paclitaxel-stabilized microtubules (prepolymerized from 8 uM tubulins in Fig 5A, 5 uM in S7 Fig) in PEMT buffer (1 mM MgCl2, 1 mM EGTA, 100 mM PIPES, 20 uM taxol, pH 6.9); 25 C 30 min; 100,000g 30 min; SDS-PAGE, Coomassie", "conditions": "both partners purified", "data": [{"binder": "MBP-TCS1 (TRICHOME CELL SHAPE 1 fused to maltose binding protein) (natural protein, Arabidopsis thaliana, UniProt Q0WSY2 1-982, looked up, TCS1, Arabidopsis thaliana, At1g19835, a 982-amino-acid coiled-coil protein; also called MBP-TCS1 fusion protein; source: E. coli Rosetta (DE3); bacterial lysate in the pull-downs) MDRKSWPWKKKSSEKTATVTEVVDQENGKKPSYIQISFDQYTNLNGLKDEVKSYEEKVTKLEDQIKDLDLKLSTANADIVAKEVLVKQHSKVAEEAVTGWEKAEAEASALKTHLETITLAKLTVEDRAAHLDGALKECMRQIRSLKEENEQKLHDVIATKTNQMDNLRAEFESRIGEYEEELLRCGAENDALSRSLQERSNMLMRISEEKSQAESEIEHLKNNIESCEREINTLKYETHVITKELEIRNEEKNMSMRSAEAANKQHLEGVKKIAKLEAECQRLRTLVRKKLPGPAALAQMKMEVESLGFGDHRQDHRQRRSPVRPSSPLMSPMSHMSQVSEFSLDNMQKFHKENDLLTERLLAMEEETKMLKEALAKRNSELQVSRNLCAKTANRLQTLEAQMMSKSPTKRGFEMPAEIFSRQNASNPPSMASMSEDGNEDARSVAGSLMSELSQSNKDKANAKIKKTESANQLELMDDFLEMEKLACLPNGSNANGSTDHSSADSDAEIPPATQLKKRISNVLQSLPKDAAFEKILAEIQCAVKDAGVKLPSKSHGANLNGLTEEKVIAMSNETTEEKVTIVEVITQELSDALSQIYQFVTYLSKEATACSENRTFSQKVQEFSTTFEGVLGKEKTLVDFLFDLSRVLVEASELKIDVLGFHTSTVEIHSPDCIDKVALPENKALQKDSSGEHYQNGCSQSSDSEIPDDCNGTSGYEPKLATCKFTTEEFEGLKLEKEKAESNLASCEADLEATKTKLQETEKLLAEVKSDLESAQKSNGMGETQLKCMVESYRSLETRSSELEIELTSLKGKIENLEDELHDEKENHREALAKCQELEEQLQRNNQNCPNCSVIEDDPKSKQDNELAAAAEKLAECQETILLLGKQLKSMCPQTEQVASSPSQEQQALNPEEEEYATSTNPQDSKLSSPSDKDTPSMNTMKSPVASKHRHTKSNSSSSSSGLTPEKHSRGFSRFFSTKAK", "values": [{"measurement": "stoichiometry N", "result": "~0.38 M MBP-TCS1 per mole of tubulin dimers"}]}]}
